Source: PMC7954794, “Protein context shapes the specificity of SH3 domain-mediated interactions in vivo” (Nature Communications, 2021)

Assays:
Format in all cases: cell-based, Saccharomyces cerevisiae
BOI2 = assay: DHFR-PCA on solid medium, bait BOI2 (Fig. 1B); conditions: bait BOI2, label = prey; for medrep (log2 median colony size normalized to plate background, PCA score): 3-8 replicates; for Ratio (SH3-deleted/WT medrep): only significant differences showed, PPIs completely lost have a ratio of 0.1 and the gained PPIs 2.5
Description: (§1) Supplement 41467_2021_21873_MOESM8_ESM.xlsx, sheet "Fig1B" | column: medsize; medrep; Ratio; Score

BEM1-2 = assay: DHFR-PCA on solid medium, bait BEM1-2 (Fig. 1B); conditions: bait BEM1-2, label = prey; for medrep (log2 median colony size normalized to plate background, PCA score): 2-8 replicates; for Ratio (SH3-deleted/WT medrep): only significant differences showed, PPIs completely lost have a ratio of 0.1 and the gained PPIs 2.5
Description: as §1

BEM1-1 = assay: DHFR-PCA on solid medium, bait BEM1-1 (Fig. 1B); conditions: bait BEM1-1, label = prey; for medrep (log2 median colony size normalized to plate background, PCA score): 2-8 replicates
Description: as §1

ABP1 = assay: DHFR-PCA on solid medium, bait ABP1 (Fig. 1B); conditions: bait ABP1, label = prey; 2-4 replicates
Description: as §1

BBC1 = assay: DHFR-PCA on solid medium, bait BBC1 (Fig. 1B); conditions: bait BBC1, label = prey; for medrep (log2 median colony size normalized to plate background, PCA score): 2-4 replicates; for Ratio (SH3-deleted/WT medrep): only significant differences showed, PPIs completely lost have a ratio of 0.1 and the gained PPIs 2.5
Description: as §1

[1] = tested on: 575 putative partners (preys) of 22 WT SH3-containing proteins; assay: DHFR-PCA on solid medium, WT and SH3-deleted baits (Fig. 1B); set-up: key to Score: 0: SH3-independent; 1: SH3-dependent PPIs; 2: SH3-inhibited PPIs; conditions: for medrep (log2 median colony size normalized to plate background, PCA score): label = prey
How it was run: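 In S. cerevisiae, 22 SH3-containing baits fused genomically to DHFR F[1,2], either WT or with each SH3 replaced via CRISPR by a poly-Gly/Ser linker, screened against 575 DHFR F[3] preys plus 40 negative controls in 1536 arrays, preys duplicated at randomized positions.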

BOI1 = assay: DHFR-PCA on solid medium, bait BOI1 (Fig. 1B); conditions: bait BOI1, label = prey; 3-8 replicates
Description: as §1

[2] = bait SLA1-2, DHFR-PCA, Replicates 4 (2 for YCR009C, YDR388W)
[3] = bait SLA1-3, DHFR-PCA, Replicates 4 (2 for YCR009C, YDR388W, YIL033C)

| Molecule | medrep (log2 median colony size normalized to plate background, PCA score) (BOI2) | Ratio (SH3-deleted/WT medrep) (BOI2) | medrep (log2 median colony size normalized to plate background, PCA score) (BEM1-2) | Ratio (SH3-deleted/WT medrep) (BEM1-2) | medrep (log2 median colony size normalized to plate background, PCA score) (BEM1-1) | medrep (log2 median colony size normalized to plate background, PCA score) (ABP1) | medrep (log2 median colony size normalized to plate background, PCA score) (BBC1) | Ratio (SH3-deleted/WT medrep) (BBC1) | medrep (log2 median colony size normalized to plate background, PCA score) [1, 2] | Score ([1]; bait SLA1-2, label = prey) | medrep (log2 median colony size normalized to plate background, PCA score) [1, 3] | Score ([1]; bait SLA1-3, label = prey) | Ratio (SH3-deleted/WT medrep) (BEM1-1; only significant differences showed, PPIs completely lost have a ratio of 0.1 and the gained PPIs 2.5) | Ratio (SH3-deleted/WT medrep) ([1]; bait SLA1-2, label = prey, only significant differences shown, PPIs completely lost have a ratio of 0.1, gained PPIs 2.5) | medrep (log2 median colony size normalized to plate background, PCA score) (BOI1) |
| --- | --- | --- | --- | --- | --- | --- | --- | --- | --- | --- | --- | --- | --- | --- | --- |
| YDR166C (protein, UniProt P89102 1-971, looked up) Exocyst complex component SEC5: MDRFQIGDEQLLRFYQLKTINPTHSWAQDSSKLNNEEATSNELGVETSFDILKDFKYGNQISIDKESRAYLNDESLSYIRDPLNGQEMSKELQHLPNDSMRLNYLVNSKQFNVKAFLRDMHKQDSFNDLNNSLDRLDSDIQDQSIHLKQLVGKNFTKYVKIKNKLDQIYKEFDEKTNEKNQCDSPKENQINVESLNKKVDEVIRTTTFKLKPLMDNYQKILNYQATKKFIELNKFYFNLPKSLKRCLTNNDFNEFIIEYSKGLTLRRRFNQSSDASQSLVIKRIWTQIENLLVTYKDLIWNSLINSNFNIDQPQETILSLFSKLLNLENFINNNQRESESGNKNTTSSSNENPILRWMSIKMNGFQNELNELSGHMISKIIHSQRLILQNNTNQDKSQGCVELSYYLKINQLFQIISDTGKDSEGLKSTVEPNKVNTISGTSYLNLNCQPSSQGLTDSPTIIEMWLLILKYINDLWKICDQFIEFWEHIEKFLDGTYQNSIINEKRKENILIGDSNIIESYQKSLILKEEQINEVRLKGEEFITSVSQNLISFFTSSQSSLPSSLKDSTGDITRSNKDSGSPLDYGFIPPNCNGLSCLRYLPKIVEPILKFSTELAQLNITTNGITICRNTLSTIINRCVGAISSTKLRDISNFYQLENWQVYETVTFSSKSQDSSKNLTFEYGVTQFPEIVTSFQEVSIKTTRDLLFAYEKLPIINGISVVSYPSKQLLTGIEIQQIISMEAVLEAILKNAAKDKDNPRNSHTILTLTNLQYFRECAFPNILQYFDDAFEWNLASKNLELFSLLSKMESSIFGNYLSDLKINLRDTLEEKFHEINWPMYTSNSFRVGDYIIEALMILIVVHSECFRIGPQLIHKILIETQIFIARYLFEAFKPYVGNLSNDGSLQIIVDLEFFQKVMGPLLEKDTEATLRACLQNCFQNDTNRLQKCINEINPIVSANLKRTAIQFAAFS | 1.688 | 0.1 | 2.981 | 0.1 | 2.981 |  |  |  |  |  |  |  |  |  |  |
| YNL243W (protein, UniProt P33338 1-968, looked up) Protein SLA2: MSRIDSDLQKALKKACSVEETAPKRKHVRACIVYTWDHQSSKAVFTTLKTLPLANDEVQLFKMLIVLHKIIQEGHPSALAEAIRDRDWIRSLGRVHSGGSSYSKLIREYVRYLVLKLDFHAHHRGFNNGTFEYEEYVSLVSVSDPDEGYETILDLMSLQDSLDEFSQIIFASIQSERRNTECKISALIPLIAESYGIYKFITSMLRAMHRQLNDAEGDAALQPLKERYELQHARLFEFYADCSSVKYLTTLVTIPKLPVDAPDVFLINDVDESKEIKFKKREPSVTPARTPARTPTPTPPVVAEPAISPRPVSQRTTSTPTGYLQTMPTGATTGMMIPTATGAANAIFPQATAQMQPDFWANQQAQFANEQNRLEQERVQQLQQQQAQQELFQQQLQKAQQDMMNMQLQQQNQHQNDLIALTNQYEKDQALLQQYDQRVQQLESEITTMDSTASKQLANKDEQLTALQDQLDVWERKYESLAKLYSQLRQEHLNLLPRFKKLQLKVNSAQESIQKKEQLEHKLKQKDLQMAELVKDRDRARLELERSINNAEADSAAATAAAETMTQDKMNPILDAILESGINTIQESVYNLDSPLSWSGPLTPPTFLLSLLESTSENATEFATSFNNLIVDGLAHGDQTEVIHCVSDFSTSMATLVTNSKAYAVTTLPQEQSDQILTLVKRCAREAQYFFEDLMSENLNQVGDEEKTDIVINANVDMQEKLQELSLAIEPLLNIQSVKSNKETNPHSELVATADKIVKSSEHLRVDVPKPLLSLALMIIDAVVALVKAAIQCQNEIATTTSIPLNQFYLKNSRWTEGLISAAKAVAGATNVLITTASKLITSEDNENTSPEQFIVASKEVAASTIQLVAASRVKTSIHSKAQDKLEHCSKDVTDACRSLGNHVMGMIEDDHSTSQQQQPLDFTSEHTLKTAEMEQQVEILKLEQSLSNARKRLGEIRRHAYYNQDDD |  |  | 1.569 | 0.1 | 1.569 | 4.661 | 2.46 | 0.1 | 4.4709 | 0 | 4.4709 | 0 | 0.1 |  |  |
| YKR048C (protein, UniProt P25293 1-417, looked up) Nucleosome assembly protein: MSDPIRTKPKSSMQIDNAPTPHNTPASVLNPSYLKNGNPVRAQAQEQDDKIGTINEEDILANQPLLLQSIQDRLGSLVGQDSGYVGGLPKNVKEKLLSLKTLQSELFEVEKEFQVEMFELENKFLQKYKPIWEQRSRIISGQEQPKPEQIAKGQEIVESLNETELLVDEEEKAQNDSEEEQVKGIPSFWLTALENLPIVCDTITDRDAEVLEYLQDIGLEYLTDGRPGFKLLFRFDSSANPFFTNDILCKTYFYQKELGYSGDFIYDHAEGCEISWKDNAHNVTVDLEMRKQRNKTTKQVRTIEKITPIESFFNFFDPPKIQNEDQDEELEEDLEERLALDYSIGEQLKDKLIPRAVDWFTGAALEFEFEEDEEEADEDEDEEEDDDHGLEDDDGESAEEQDDFAGRPEQAPECKQS | 1.303 | 2.5 |  |  |  | 3.939 | 1.806 | 0.1 | 1.303 | 1 | 1.303 | 0 |  | 0.1 |  |
| YAL041W (protein, UniProt P11433 1-854, looked up) Cell division control protein …: MAIQTRFASGTSLSDLKPKPSATSISIPMQNVMNKPVTEQDSLFHICANIRKRLEVLPQLKPFLQLAYQSSEVLSERQSLLLSQKQHQELLKSNGANRDSSDLAPTLRSSSISTATSLMSMEGISYTNSNPSATPNMEDTLLTFSMGILPITMDCDPVTQLSQLFQQGAPLCILFNSVKPQFKLPVIASDDLKVCKKSIYDFILGCKKHFAFNDEELFTISDVFANSTSQLVKVLEVVETLMNSSPTIFPSKSKTQQIMNAENQHRHQPQQSSKKHNEYVKIIKEFVATERKYVHDLEILDKYRQQLLDSNLITSEELYMLFPNLGDAIDFQRRFLISLEINALVEPSKQRIGALFMHSKHFFKLYEPWSIGQNAAIEFLSSTLHKMRVDESQRFIINNKLELQSFLYKPVQRLCRYPLLVKELLAESSDDNNTKELEAALDISKNIARSINENQRRTENHQVVKKLYGRVVNWKGYRISKFGELLYFDKVFISTTNSSSEPEREFEVYLFEKIIILFSEVVTKKSASSLILKKKSSTSASISASNITDNNGSPHHSYHKRHSNSSSSNNIHLSSSSAAAIIHSSTNSSDNNSNNSSSSSLFKLSANEPKLDLRGRIMIMNLNQIIPQNNRSLNITWESIKEQGNFLLKFKNEETRDNWSSCLQQLIHDLKNEQFKARHHSSTSTTSSTAKSSSMMSPTTTMNTPNHHNSRQTHDSMASFSSSHMKRVSDVLPKRRTTSSSFESEIKSISENFKNSIPESSILFRISYNNNSNNTSSSEIFTLLVEKVWNFDDLIMAINSKISNTHNNNISPITKIKYQDEDGDFVVLGSDEDWNVAKEMLAENNEKFLNIRLY | 3.947 |  | 4.862 |  | 4.862 |  |  |  |  |  |  |  |  |  | 2.673 |
| YER114C (protein) PMYIAINEYFKRMEDELDMKPGDKIKVITDDEEYKDGWYFGRNLRTNEEGLYPVVFTQKIT | 3.383 |  | 2.85 | 0.1 | 2.85 |  |  |  |  |  |  |  |  |  |  |
